“And” between values parts separate entries of the source, which are not always exact repeats. Identical values can stand only once.

The data set concerns the molecule itself. In words: cross-linking; HeLa cells infected with C. trachomatis L2 (wild type or transformants induced at 16 hpi) treated with 0.25 mM DSS in HBSS pH 7.6 on ice at 4°C for at least 1 h; whole-cell lysates on 8% SDS-PAGE, immunoblot with anti-ClpC (endogenous) or anti-6×His (ectopic).

B1: endogenous ClpC of wild-type C. trachomatis serovar L2 (natural protein)
chain: not shown
notes: ClpC AAA+ ATPase of Chlamydia trachomatis serovar L2; monomer of the expected size 95 kDa; source: endogenous, wild-type Ctr L2 in infected HeLa cells, whole-cell lysate
For the protein B1, the “stoichiometry N” value was 2 and 6.
